These results are taken from patent EP4650366A1 (Beijing Tuo Jie Biopharmaceutical Co. Ltd., dated 2025).

Like-named read-outs stand apart in the source and are kept apart here.

In one experiment the target is T1, Mouse GARP-TGFβ1 complex (mouse, UniProt G3XA59 18-628; P04202 30-390).
T1 construct: Soluble recombinant complex, co-expressed in ExpiCHO cells and purified; also called Murine GARP-TGFβ1 complex
Nature of the experiment: SPR (Biacore T200), method of Example 4.

For experiment [1], the target named is T2, Human GARP-TGFβ1 complex (human, UniProt Q14392 20-627; P01137 30-390).
T2 construct: Soluble recombinant complex, co-expressed in ExpiCHO cells and purified; also called human GARP/TGFβ1 protein
T2 sequence (P01137 30-390 limits assumed, one chain of several): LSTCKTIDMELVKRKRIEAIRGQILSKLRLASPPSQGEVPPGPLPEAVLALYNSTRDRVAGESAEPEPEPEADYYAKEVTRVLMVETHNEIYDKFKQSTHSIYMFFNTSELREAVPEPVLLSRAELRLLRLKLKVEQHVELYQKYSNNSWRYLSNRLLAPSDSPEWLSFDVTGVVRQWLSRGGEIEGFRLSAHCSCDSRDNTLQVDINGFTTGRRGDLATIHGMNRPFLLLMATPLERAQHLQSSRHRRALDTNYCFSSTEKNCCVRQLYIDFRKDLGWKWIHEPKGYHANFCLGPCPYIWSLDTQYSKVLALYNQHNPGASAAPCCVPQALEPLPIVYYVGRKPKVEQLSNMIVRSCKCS
Put plainly: SPR (Biacore T200), method of Example 4.

The target of experiment [2] is T2, Human GARP-TGFβ1 complex. Nature of the experiment: SPR (Biacore T200), method of Example 4. This is another data set of the same source. Background: SPR reads the build-up and loss of mass on a sensor chip optically.
In experiment [3] the target is T2, Human GARP-TGFβ1 complex. Put plainly: SPR, method of Example 4; reference H27; antigen not given, taken as the human GARP-TGFβ1 complex as in Table 11.
Experiment [4] has as its target T3, human GARP-TGFβ2 complex expressed by transfected HEK293E cells (human, UniProt P61812 21-414; Q14392 20-662).
T3 construct: whole, on cells; also called TGFβ2-GARP complex; TGFβ2 + GARP
T3 sequence (looked up) 1: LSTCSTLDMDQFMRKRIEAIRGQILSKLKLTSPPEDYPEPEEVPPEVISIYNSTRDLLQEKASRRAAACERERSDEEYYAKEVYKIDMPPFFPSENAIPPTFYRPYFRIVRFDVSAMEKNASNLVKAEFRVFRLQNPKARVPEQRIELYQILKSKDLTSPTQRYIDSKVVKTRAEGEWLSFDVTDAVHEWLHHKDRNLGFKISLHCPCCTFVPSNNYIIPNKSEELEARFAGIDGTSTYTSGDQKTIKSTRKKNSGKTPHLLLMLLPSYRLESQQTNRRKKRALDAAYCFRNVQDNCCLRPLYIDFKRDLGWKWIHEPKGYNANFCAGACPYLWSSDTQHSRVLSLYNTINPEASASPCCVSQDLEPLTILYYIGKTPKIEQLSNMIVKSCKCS
T3 sequence (looked up) 2: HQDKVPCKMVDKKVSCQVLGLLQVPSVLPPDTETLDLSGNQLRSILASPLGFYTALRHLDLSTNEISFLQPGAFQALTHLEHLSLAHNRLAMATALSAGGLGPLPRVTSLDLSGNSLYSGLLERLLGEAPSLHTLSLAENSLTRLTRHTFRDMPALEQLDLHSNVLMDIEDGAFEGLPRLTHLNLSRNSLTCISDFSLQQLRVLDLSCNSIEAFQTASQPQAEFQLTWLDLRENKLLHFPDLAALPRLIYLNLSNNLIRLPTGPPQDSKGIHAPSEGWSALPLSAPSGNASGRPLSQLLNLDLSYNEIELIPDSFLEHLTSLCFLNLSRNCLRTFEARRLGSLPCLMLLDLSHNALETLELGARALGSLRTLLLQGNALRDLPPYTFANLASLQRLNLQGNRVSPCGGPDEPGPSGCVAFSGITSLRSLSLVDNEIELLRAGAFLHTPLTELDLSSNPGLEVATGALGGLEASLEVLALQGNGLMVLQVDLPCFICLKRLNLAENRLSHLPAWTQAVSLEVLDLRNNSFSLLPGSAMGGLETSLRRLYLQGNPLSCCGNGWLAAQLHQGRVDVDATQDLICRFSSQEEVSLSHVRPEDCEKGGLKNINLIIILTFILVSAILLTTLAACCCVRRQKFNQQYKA
Put plainly: flow cytometry on transfected HEK293E cells, FITC anti-human Fc. In general terms: Flow cytometry measures light scatter and fluorescence of single cells or particles in a stream.

For experiment [5], the target named is T4, human TGFβ2 expressed by transfected HEK293E cells (human, UniProt P61812 21-414).
T4 construct: whole, on cells
T4 sequence (looked up): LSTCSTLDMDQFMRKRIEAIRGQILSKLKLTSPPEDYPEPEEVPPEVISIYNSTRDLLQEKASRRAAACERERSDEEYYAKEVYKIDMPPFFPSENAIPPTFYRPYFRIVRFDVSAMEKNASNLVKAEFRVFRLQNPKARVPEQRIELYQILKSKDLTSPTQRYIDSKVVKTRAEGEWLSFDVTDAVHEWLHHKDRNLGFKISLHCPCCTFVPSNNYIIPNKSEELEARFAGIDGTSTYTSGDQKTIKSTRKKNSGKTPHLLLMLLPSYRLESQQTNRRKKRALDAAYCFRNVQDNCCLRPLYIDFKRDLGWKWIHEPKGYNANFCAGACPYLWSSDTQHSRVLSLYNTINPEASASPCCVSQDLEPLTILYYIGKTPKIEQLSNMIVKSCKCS
The description is as above.

The target of experiment [6] is T5, human GARP-TGFβ1 complex expressed by transfected cells (human, UniProt P01137 30-390; Q14392 20-662).
T5 construct: whole, on cells; also called TGFβ1-GARP complex; TGFβ1 + GARP
T5 sequence (P01137 30-390, one chain of several): as the sequence (P01137 30-390 limits assumed, one chain of several) above
Put plainly: flow cytometry on transfected HEK293E cells, 10 nM antibody.

Experiment [7] has as its target T6, mouse TGFβ1 expressed by transfected cells (mouse, UniProt P04202 30-390).
T6 construct: whole, on cells; also called mTGFβ1; murine TGFβ1
Described as above.

In experiment [8] the target is T7, mouse GARP-TGFβ1 complex expressed by transfected cells (mouse, UniProt P04202 30-390; G3XA59 18-663).
T7 construct: whole, on cells; also called mTGFβ1-mGARP complex; mTGFβ1 + mGARP
T7 sequence (P04202 30-390, chain 1 of 2): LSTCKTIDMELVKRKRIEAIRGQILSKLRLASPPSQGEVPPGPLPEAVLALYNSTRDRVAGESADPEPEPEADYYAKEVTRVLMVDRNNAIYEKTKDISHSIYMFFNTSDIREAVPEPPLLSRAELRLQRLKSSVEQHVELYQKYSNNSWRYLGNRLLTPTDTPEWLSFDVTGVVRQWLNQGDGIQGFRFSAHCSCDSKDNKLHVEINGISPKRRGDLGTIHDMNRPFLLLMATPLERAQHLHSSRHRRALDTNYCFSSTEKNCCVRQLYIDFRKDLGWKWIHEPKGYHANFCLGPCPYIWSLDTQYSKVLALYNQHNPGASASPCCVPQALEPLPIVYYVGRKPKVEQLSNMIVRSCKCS
T7 sequence (G3XA59 18-663, chain 2 of 2): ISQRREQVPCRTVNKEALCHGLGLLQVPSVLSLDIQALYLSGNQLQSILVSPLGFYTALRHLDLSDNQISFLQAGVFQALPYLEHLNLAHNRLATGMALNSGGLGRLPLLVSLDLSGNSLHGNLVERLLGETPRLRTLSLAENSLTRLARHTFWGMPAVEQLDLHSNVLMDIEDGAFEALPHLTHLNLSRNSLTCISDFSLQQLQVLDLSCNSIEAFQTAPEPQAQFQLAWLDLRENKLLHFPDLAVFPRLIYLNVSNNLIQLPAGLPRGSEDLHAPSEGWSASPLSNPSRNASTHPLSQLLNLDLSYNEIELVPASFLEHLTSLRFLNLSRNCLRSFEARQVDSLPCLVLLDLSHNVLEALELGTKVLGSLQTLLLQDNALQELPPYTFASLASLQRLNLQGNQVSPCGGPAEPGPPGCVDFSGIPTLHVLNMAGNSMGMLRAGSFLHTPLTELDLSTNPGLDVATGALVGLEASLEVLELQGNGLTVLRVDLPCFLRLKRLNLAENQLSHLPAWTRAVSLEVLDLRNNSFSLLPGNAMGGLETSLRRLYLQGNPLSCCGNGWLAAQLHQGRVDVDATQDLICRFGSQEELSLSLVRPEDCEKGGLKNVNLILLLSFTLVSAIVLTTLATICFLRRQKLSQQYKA
Described as above.

For experiment [9], the target named is T8, human TGFβ1 expressed by transfected cells (human, UniProt P01137 30-390).
T8 construct: whole, on cells; also called human pro-TGFβ1
T8 sequence (P01137 30-390): as the sequence (P01137 30-390 limits assumed, one chain of several) above
Described as above.

T1 sequence (G3XA59 other isoform, or with tags, fused parts or gaps limits assumed, chain 1 of 2): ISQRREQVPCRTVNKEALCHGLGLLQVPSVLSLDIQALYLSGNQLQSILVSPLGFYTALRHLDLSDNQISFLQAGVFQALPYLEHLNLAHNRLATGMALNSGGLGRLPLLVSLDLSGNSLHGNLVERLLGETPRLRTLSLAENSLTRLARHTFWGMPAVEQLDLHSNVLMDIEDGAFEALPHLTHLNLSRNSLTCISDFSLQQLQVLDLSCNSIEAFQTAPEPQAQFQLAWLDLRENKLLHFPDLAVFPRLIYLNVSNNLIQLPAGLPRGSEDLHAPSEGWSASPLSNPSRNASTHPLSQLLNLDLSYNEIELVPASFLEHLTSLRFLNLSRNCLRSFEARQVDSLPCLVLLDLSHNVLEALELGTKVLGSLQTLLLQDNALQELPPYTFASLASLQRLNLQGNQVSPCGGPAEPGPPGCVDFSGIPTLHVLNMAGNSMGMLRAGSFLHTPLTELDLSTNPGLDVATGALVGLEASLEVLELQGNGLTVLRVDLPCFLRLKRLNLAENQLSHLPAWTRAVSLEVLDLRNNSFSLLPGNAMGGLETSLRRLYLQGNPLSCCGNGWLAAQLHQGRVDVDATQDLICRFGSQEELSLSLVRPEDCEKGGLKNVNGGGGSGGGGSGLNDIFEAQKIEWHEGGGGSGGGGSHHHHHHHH
T1 sequence (P04202 30-390 limits assumed, chain 2 of 2): as the sequence (P04202 30-390, chain 1 of 2) above
T6 sequence (P04202 30-390): as the sequence (P04202 30-390, chain 1 of 2) above

B1: Ab6 (antibody, V domains shown)
VH: QVQLVESGGGVVQPGRSLRLSCAASGFAFSSYGMHWVRQAPGKGLEWVAVISYDGNNKYYADSVKGRFTISRDNSKNTLYLQMNSLRAEDTAVYYCARDLLVRFLEWSHKYGMDVWGQGTTVTVSS
VL: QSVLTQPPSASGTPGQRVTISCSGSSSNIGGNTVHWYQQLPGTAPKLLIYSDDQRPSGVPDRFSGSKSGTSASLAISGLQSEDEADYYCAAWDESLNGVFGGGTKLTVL
In general, Kd refers to the free concentration of one partner at which half of the binding sites on the other are occupied at equilibrium, for simple one-to-one binding. Higher therefore signals weaker binding. By koff is commonly meant the rate constant with which the complex falls apart. A lower koff goes with slow dissociation. In general, kon refers to a measure of how fast the partners come together. Lower therefore signals slower complex formation. In the experiment with Mouse GARP-TGFβ1 complex, B1 had a Kd of 0.226 nM, a koff of 0.000106 s⁻¹ and a kon of 469000 M⁻¹ s⁻¹. Moreover, in the experiment with Human GARP-TGFβ1 complex [1], the Kd was 0.332 nM, the koff is 0.000138 s⁻¹ and the on-rate constant (kon) is 417000 M⁻¹ s⁻¹.

B2: SL2-2 (antibody, human IgG4 S228P, kappa, V domains shown)
VH: not shown
VL: DIQMTQSPSSLSASVGDRVTITCRASQFISDYLNWYQQKPGKAPKLLIYTASYLDSGVPSRFSGSGSGTDFTLTISSLQPEDFATYYCQQSYSTPLTFGGGTKLEIKR
notes: Human IgG4-S228P/kappa, H27 heavy chain
In the case of B2, in the experiment with Human GARP-TGFβ1 complex [2], the Kd is 0.135 nM, the koff is 5.24e-05 s⁻¹ and the association rate constant (kon) worked out at 387000 M⁻¹ s⁻¹. For the same molecule, the “fold affinity over H27” value with Human GARP-TGFβ1 complex [3] came out at 5 fold.

B3: SL2-19 (antibody, human IgG4 S228P, kappa, V domains shown)
VH: not shown
VL: DIQMTQSPSSLSASVGDRVTITCRASQAISPYLNWYQQKPGKAPKLLIYAASELESGVPSRFSGSGSGTDFTLTISSLQPEDFATYYCQQSYSTPLTFGGGTKLEIKR
notes: as for B2
In the experiment with Human GARP-TGFβ1 complex [2], B3 showed a Kd of 0.362 nM, a koff of 6.95e-05 s⁻¹ and a kon of 192000 M⁻¹ s⁻¹. Besides, in the experiment with Human GARP-TGFβ1 complex [3], the “fold affinity over H27” value is 5 fold.

B4: SL2-9 (antibody, human IgG4 S228P, kappa, V domains shown)
VH: not shown
VL: DIQMTQSPSSLSASVGDRVTITCRASQFISPYLNWYQQKPGKAPKLLIYAASELESGVPSRFSGSGSGTDFTLTISSLQPEDFATYYCQQSYSTPLTFGGGTKLEIKR
notes: as for B2
Take B4: in the experiment with Human GARP-TGFβ1 complex [2], the Kd is 0.475 nM, the koff came out at 8.54e-05 s⁻¹ and the kon turned out to be 180000 M⁻¹ s⁻¹. Also, in the experiment with Human GARP-TGFβ1 complex [3], the “fold affinity over H27” value was 5 fold.

B5: SL2-12 (antibody, human IgG4 S228P, kappa, V domains shown)
VH: not shown
VL: DIQMTQSPSSLSASVGDRVTITCRASQYISDYLNWYQQKPGKAPKLLIYSASYLDSGVPSRFSGSGSGTDFTLTISSLQPEDFATYYCQQSYSTPLTFGGGTKLEIKR
notes: as for B2
On to B5, for which, in the experiment with Human GARP-TGFβ1 complex [2], binding was put at a Kd of 0.266 nM, the koff amounted to 8.51e-05 s⁻¹ and the kon stood at 320000 M⁻¹ s⁻¹. Besides, the “fold affinity over H27” value with Human GARP-TGFβ1 complex [3] came out at 5 fold.

B6: SL2-22 (antibody, human IgG4 S228P, kappa, V domains shown)
VH: not shown
VL: DIQMTQSPSSLSASVGDRVTITCRASQSISDYLNWYQQKPGKAPKLLIYTASYLDSGVPSRFSGSGSGTDFTLTISSLQPEDFATYYCQQSYSTPLTFGGGTKLEIKR
notes: Human IgG4-S228P/kappa, H27 heavy chain; also called TGFβ1 monoclonal antibody SL2-22; anti-human TGFβ1 antibody SL2-22
Turning to B6, the figures for the dissociation constant (Kd) with Human GARP-TGFβ1 complex [2], in the experiment with Mouse GARP-TGFβ1 complex and with Human GARP-TGFβ1 complex [1] were 0.161 nM, 0.228 nM and 0.254 nM, respectively. The koff with Human GARP-TGFβ1 complex [2] amounted to 6.08e-05 s⁻¹; in the experiment with Mouse GARP-TGFβ1 complex, 8.86e-05 s⁻¹; with Human GARP-TGFβ1 complex [1], 9.5e-05 s⁻¹. Moreover, the kon in the experiment with Human GARP-TGFβ1 complex [2] came to 379000 M⁻¹ s⁻¹; with Mouse GARP-TGFβ1 complex, 389000 M⁻¹ s⁻¹; in the experiment with Human GARP-TGFβ1 complex [1] it was 375000 M⁻¹ s⁻¹. For the same molecule, in the experiment with Human GARP-TGFβ1 complex [3], the “fold affinity over H27” value stood at 5 fold. The binding result in experiment [4] is “no binding (tested: 10 nM)”; in experiment [5], “no binding (tested: 10 nM)”; in experiment [6], “binds”; in experiment [7], “binds”; in [8] it was “binds”; in [9] it was “binds”.
